Patent US7807397B2, “Diagnostic method for disorders using copeptin” (B.R.A.H.M.S Aktiengesellschaft, priority 2004, dated 2010)
Like-named read-outs stand apart in the source and are kept apart here. Where no end group is shown, it is not given here.

Legend:
[1] = format: in vitro ADME, human
Experimental: The following assay buffer was used: 100 mM sodium phosphate, 150 mM NaCl, 5% bovine serum albumin, 0.1% unspecified sheep IgG, 0.1% sodium azide, pH 7.4.
As a standard material chemically synthesized peptide (peptide PAY 33) was used which corresponds to positions 132-164 of vasopressin-neurophysin 2-copeptin precursor. The standard was diluted in normal horse serum (Sigma). […]
In the test tubes 100 μl of standards or sample as well as 100 μl of assay buffer was pipetted. The tubes were incubated for two hours at 22° C. using gentle rotation. After washing 4 times with 1 ml of washing buffer (0.1% Tween 20), the supernatant was discarded. Then 200 μl of assay buffer, containing 1 million RLU (relative light units) of MA70-tagged antibody was added and incubated for a further two hours under gentle rotation at 22° C. After washing 4 times with 1 ml of washing buffer (0.1% Tween 20), the chemiluminescence bound to the tube was determined in a luminometer (Berthold, LB952T, basic reagents Brahms AG).
Using the software MULTICALC® (Spline Fit), the concentrations of the samples were determined.
The term copeptin immunoreactivity describes the amount of substrate detected by the developed sandwich immunoassay. The sandwich immunoassay uses antibodies raised against positions 132-147 and 149-164 of the vasopressin-neurophysin 2-copeptin-precursor for detection of the substrate. A typical standard curve for the developed assay is described in FIG. 1. Using the assay concentrations above 50 pg/ml copeptin immunoreactivity in plasma or serum can be determined quantitatively.

[2] = reference [14]; cited from earlier work
[3] = test system: blood platelets; conditions: reference [21]; cited from earlier work

| Molecule | Recovery (%) ([1]; plasma (n = 5), storage 1 d/4° C.) | Recovery (%) ([1]; plasma (n = 5), storage 1 d/RT) | Recovery (%) ([1]; plasma (n = 5), storage 2 d/4° C.) | Recovery (%) ([1]; plasma (n = 5), storage 2 d/RT) | Recovery (%) ([1]; serum (n = 3), storage 1 d/4° C.) | Recovery (%) ([1]; serum (n = 3), storage 1 d/RT) | Recovery (%) ([1]; serum (n = 3), storage 2 d/4° C.) | Recovery (%) ([1]; serum (n = 3), storage 2 d/RT) | half-life in vivo [2] [min] | fraction bound to blood platelets [3] |
| --- | --- | --- | --- | --- | --- | --- | --- | --- | --- | --- |
| copeptin: C-terminal glycoprotein of the VP prohormone, 39 amino acids plus sugar moiety; measured as endogenous copeptin immunoreactivity (ASDRSNATQLDGPAGALLLRLVQLAGAPEPFEPAQPDAY; also: glycosylated (sugar moiety); UniProt P01185 126-164, looked up) | 103.4 | 99.9 | 101.6 | 104.9 | 98.0 | 94.1 | 99.2 | 103.7 |  |  |
| NC(=O)CC[C@@H]1NC(=O)[C@H](Cc2ccccc2)NC(=O)[C@H](Cc2ccc(O)cc2)NC(=O)[C@@H](N)CSSC[C@@H](C(=O)N2CCC[C@H]2C(=O)N[C@@H](CCCN=C(N)N)C(=O)NCC(N)=O)NC(=O)[C@H](CC(N)=O)NC1=O [vasopressin] |  |  |  |  |  |  |  |  | 24 | More than 90% |
